Data: US20160145323A1 (INTEGRAL MOLECULAR, published 2016)

Experiments:
[1] = target: T1, CHIKV E2/E1 envelope (S27 strain) displayed on particles (intact CHIKV VLPs, retroviral VLPs, pseudo (Chikungunya virus (S27 strain), UniProt P0DOK1 326-748; Q8JUX5 810-1248); assay: cell-based or functional assay
[2] = target: T1, CHIKV E2/E1 envelope (S27 strain) …
[3] = target: CHIKV envelope mutant E2-T116A expressed on HEK-293T cells (Chikungunya virus (S27 strain), UniProt P0DOK1 326-748; Q8JUX5 810-1248)
[4] = target: CHIKV envelope mutant E2-F84A expressed on HEK-293T cells (Chikungunya virus (S27 strain), UniProt P0DOK1 326-748; Q8JUX5 810-1248)
[5] = target: CHIKV envelope mutant E2-G114A expressed on HEK-293T cells (Chikungunya virus (S27 strain), UniProt P0DOK1 326-748; Q8JUX5 810-1248)
[6] = target: CHIKV envelope mutant E2-D117A expressed on HEK-293T cells (Chikungunya virus (S27 strain), UniProt P0DOK1 326-748; Q8JUX5 810-1248)
[7] = target: CHIKV envelope mutant E2-V113A expressed on HEK-293T cells (Chikungunya virus (S27 strain), UniProt P0DOK1 326-748; Q8JUX5 810-1248)
[8] = target: CHIKV envelope mutant E2-Y69A expressed on HEK-293T cells (Chikungunya virus (S27 strain), UniProt P0DOK1 326-748; Q8JUX5 810-1248)
[9] = target: CHIKV E2/E1 envelope (S27 strain) displayed on particles (intact CHIKV VLPs, retroviral VLPs, pseudo (Chikungunya virus (S27 strain)) (UniProt P0DOK1))
[10] = target: CHIKV E2/E1 envelope (S27 strain) displayed on particles (intact CHIKV VLPs, retroviral VLPs, pseudo (Chikungunya virus (S27 strain)) (UniProt P0DOK1)); assay: cell-based or functional assay
[11] = target: CHIKV envelope mutant E2-E24A expressed on HEK-293T cells (Chikungunya virus (S27 strain)) (UniProt P0DOK1)
[12] = target: CHIKV envelope mutant E2-R80A expressed on HEK-293T cells (Chikungunya virus (S27 strain)) (UniProt P0DOK1)
[13] = target: CHIKV envelope mutant E2-W64A expressed on HEK-293T cells (Chikungunya virus (S27 strain)) (UniProt P0DOK1)
[14] = target: CHIKV envelope mutant E2-I121A expressed on HEK-293T cells (Chikungunya virus (S27 strain)) (UniProt P0DOK1)
[15] = target: CHIKV envelope mutant E2-G55A expressed on HEK-293T cells (Chikungunya virus (S27 strain)) (UniProt P0DOK1)
[16] = target: CHIKV envelope mutant E2-A162S (Chikungunya virus (S27 strain)) (UniProt P0DOK1)
[17] = target: CHIKV envelope mutant E2-K66A expressed on HEK-293T cells (Chikungunya virus (S27 strain)) (UniProt P0DOK1)
[18] = target: CHIKV envelope mutant E2-E24A expressed on HEK-293T cells (Chikungunya virus (S27 strain)) (UniProt P0DOK1); remark: listed apart in the source
[19] = target: CHIKV envelope mutant E2-R80A expressed on HEK-293T cells (Chikungunya virus (S27 strain)) (UniProt P0DOK1); remark: listed apart in the source
[20] = target: CHIKV envelope mutant E2-W64A expressed on HEK-293T cells (Chikungunya virus (S27 strain)) (UniProt P0DOK1); remark: listed apart in the source
[21] = target: CHIKV envelope mutant E2-I121A expressed on HEK-293T cells (Chikungunya virus (S27 strain)) (UniProt P0DOK1); remark: listed apart in the source
[22] = target: CHIKV envelope mutant E2-G55A expressed on HEK-293T cells (Chikungunya virus (S27 strain)) (UniProt P0DOK1); remark: listed apart in the source

B1: MAb CAP5A-F6 (IM-CKV065), human IgG1 (antibody, V domains shown)
VH: EVQLVQSGPEVKKPGASVKVSCKASGYTFSNYGVSWVRQAPGQGLEWLGWISAYNGNTKYAQKFEGRVTLTTDSLSDTAYMELRSLRSDDTAVYYCVRDDRSGYYYLPFDFWGQGTLVTVSS
VL: DIQLTQSPSFLSASVGDRVTITCRASQGISSYLAWYQQKPGKAPKLLIFAASTLQSGVPSRFSGSGSGTDYTLTISSLQPEDFATYYCQQSYSNPTFGQGTRLEIK
For B1, the “IC50, neutralization of reporter viruses pseudotyped with CHIKV S27 E2/E1” value [1] was 0.17 µg/mL, the Kd [2] was 9.3 nM and the koff [2] was 0.0015 s⁻¹. For the same binder, the kon [2] was 160000 M⁻¹ s⁻¹.

B2: CAP101A-E8 (IM-CKV056), converted to full length human IgG (antibody, V domains shown)
VH: QVQLVQSGGGVVQPGRSLRLSCAASGFTLSTYGLHWVRQAPGKGLEWVAVISYDGTNKYYADSVKGRFTVSWDNSKNTLYLQMNSLRAEDTAVYYCAKDLASSSWSDYYHYGMDVWGQGTMVTVSS
VL: DIQLTQSPSTLSASVGDRITITCRATQSIGSWLAWYQQKPGKAPKLLIYKASSLESGVPSRFSGSGSATEFTLTISGLQPEDFATYYCQQLKSFPLTFGPGTKVDIQ
B2 was tested, and the “reactivity relative to WT CHIKV env” value [3] was < 20 % of WT, the “reactivity relative to WT CHIKV env” value [4] was < 20 % of WT and the “reactivity relative to WT CHIKV env” value [5] was < 20 % of WT. For the same binder, the “reactivity relative to WT CHIKV env” value [6] was < 20 % of WT, the “reactivity relative to WT CHIKV env” value [7] was < 20 % of WT and the “reactivity relative to WT CHIKV env” value [8] was < 20 % of WT.

B3: MAb CAP4A-E7 (IM-CKV063), human IgG1 (antibody, V domains shown)
VH: QVQLVQSGAEVKKPGSAVKVSCKASGGTLRKYAISWLRQAPGQGLEWMGGIIPIFGTANYAQKFQGRVTITADESTTTPYTTTPYTSTAYIELTSLRSEDTAVYYCARDLGPLTGYSYSYFDYWGQGTLVTVSS
VL: EIVMTQSPATLSLSPGERATLSCRASQSVSSYLAWYQQKPGQAPRLLIYDASNRATGIPDRFSGSGSGTDFTLTISRLEPEDFAVYYCQQYANSRRTFGQGTKVEIT
Binder B3 has a Kd [9] of 0.32 nM, a koff [9] of 9.4e-05 s⁻¹ and a kon [9] of 290000 M⁻¹ s⁻¹. It also gave an IC50, neutralization of reporter viruses pseudotyped with CHIKV S27 E2/E1 [10] of 0.0074 µg/mL and a PRNT50, live CHIKV S27 on Vero cells [10] of 11 ng/mL.

B4: purified Fab CAP4A-E7 (Fab, V domains shown)
VH: B3 VH
VL: B3 VL
In the case of B4, the percent wild-type reactivity (percent wild-type) [11] is reported as 15, the percent wild-type reactivity (percent wild-type) [12] is reported as 3 and the percent wild-type reactivity (percent wild-type) [13] is reported as 1. For the same binder, the percent wild-type reactivity (percent wild-type) [14] was 2, the percent wild-type reactivity (percent wild-type) [15] was 12 and the percent wild-type reactivity (percent wild-type) [16] was 37. It also gave a binding relative to wild-type E2/E1 (% of wild-type) [17] of under 20, a binding relative to wild-type E2/E1 (% of wild-type) [18] of under 20 and a binding relative to wild-type E2/E1 (% of wild-type) [19] of under 20. For the same binder, the binding relative to wild-type E2/E1 (% of wild-type) [20] was under 20, the binding relative to wild-type E2/E1 (% of wild-type) [21] was under 20 and the binding relative to wild-type E2/E1 (% of wild-type) [22] was under 20.
